Results on three molecules are retold here after US20050042607A1, “Parkin protein as ubiquitin ligase” (priority 2000, published 2005).

Entries after “also recorded” stand apart in the source; their conditions may differ.

The target of experiment [1] is T1, UbcH7 (Homo sapiens, UniProt P68036).
T1 construct: expressed in transfected cells; host or cells: HEK293
The experiment is described as follows: Co-immunoprecipitation of Myc-Parkin with FLAG-UbcH7 expressed in HEK293 cells. The following applies: 48 hours after transfection, IP with antiMyc antibody. The experiment is classed as binding. As to the method: (§1) For preparing pcDNA3.1(+)Myc and pcDNA3.1(+)FLAG vectors, oligo DNA encoding N-terminal Myc and FLAG epitopes was ligated at KpnI/BamHI domain of pcDNA3.1(+) (Invitrogen). After the amplification of wild type parkin or N-terminal-deficient variant, Ubc2(HHR6B), UbcH8 and cDNA of ubiquitin with a suitable primer, they were ligated in BamHI domain of the vector. The C-terminal-deficient variant and missense variant of parkin were prepared by introducing a variation into pcDNA3.1(+)Myc-Parkin by using a Quik Change domain specific variation inducing kit (Stratagene) according to a manual. pCAGGS-Ubc3 was already reported [Iwai K. et al., Proc. Natl. Acad. Sci. USA 96, 12436-12441 (1999)].
(§2) pCGN-Ubc4 and other pcDNA3.1(+)FLAG-Ubc were prepared from human liver cDNA library by an ordinary method. Ubc used was obtained from human beings in all the cases. Human fetal kidney 293 (HEK293) cells and human dopamigenergic neuroblastoma SH-SY5Y cells were cultured in DMEM containing 10% bovine fetal serum, 10 μg/ml streptomycin and 100 U/ml penicillin.
The transfection was carried out by using FuGENE6 transfection reagent according to the producer (Boehringer-Mannheim)'s manual. […]
The following test was conducted to find whether Parkin concerns the ubiquitin pathway or not. To find whether the interaction between Parkin and each of various E2 enzymes occurs or not, Myc-labeled parkin was expressed together with various E2 enzymes labeled with FLAG, HA or His at different domains in HEK293 cells, and the interaction of them was detected by the immunoprecipitation The results are shown in FIG. 1.
Concretely, pcDNA3.1(+)Myc-Parkin ([…]) was transfected in HEK293 cells simultaneously with various expression vectors encoding FLAG-, His- or HA-Ubc in an amount shown in the parentheses in FIG. 1. […] The cell extracts (upper panel in FIG. 1) and immunoprecipitates (middle and lower panels in FIG. 1) were analyzed by the immunoblotting with various antibodies as shown in FIG. 1. […]

The target in experiment [2] is T2, UbcH8 (Homo sapiens, UniProt O14933).
T2 construct: expressed in transfected cells; host or cells: HEK293
The experiment can be described thus: Co-immunoprecipitation of Myc-Parkin with UbcH8 expressed in HEK293 cells. The experiment is classed as binding. Particulars: 48 hours after transfection, IP with antiMyc antibody. As for the experimental part: as §1
(§3) pCGN-Ubc4 and other pcDNA3.1(+)FLAG-Ubc were prepared from human liver cDNA library by an ordinary method. Ubc used was obtained from human beings in all the cases. […]
(§4) The following test was conducted to find whether Parkin concerns the ubiquitin pathway or not. To find whether the interaction between Parkin and each of various E2 enzymes occurs or not, Myc-labeled parkin was expressed together with various E2 enzymes labeled with FLAG, HA or His at different domains in HEK293 cells, and the interaction of them was detected by the immunoprecipitation The results are shown in FIG. 1. […]

The target in experiment [3] is T3, Ubc2 (Homo sapiens, UniProt P63146).
T3 construct: expressed in transfected cells; host or cells: HEK293
The experiment is described as follows: Co-immunoprecipitation of Myc-Parkin with Ubc2 expressed in HEK293 cells. The experiment is classed as binding. Particulars: IP with antiMyc antibody. As for the experimental part:
as §1, §3, §4

The target of experiment [4] is T4, Ubc3 (Homo sapiens, UniProt P49427).
T4 construct: expressed in transfected cells; host or cells: HEK293
T4 sequence (P49427 1-236): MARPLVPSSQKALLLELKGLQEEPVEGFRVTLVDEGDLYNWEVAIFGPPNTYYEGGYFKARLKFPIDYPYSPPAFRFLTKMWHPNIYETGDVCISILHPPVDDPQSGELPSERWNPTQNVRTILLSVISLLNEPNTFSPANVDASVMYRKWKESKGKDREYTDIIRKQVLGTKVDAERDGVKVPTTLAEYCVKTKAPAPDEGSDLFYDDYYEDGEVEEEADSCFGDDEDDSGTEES
The experiment can be described thus: Co-immunoprecipitation of Myc-Parkin with Ubc3 expressed in HEK293 cells. The experiment is classed as binding. The following applies: IP with antiMyc antibody. As to the method: as §1, §3, §4

Experiment [5] has as its system Ubc4. The experiment is described as follows: Co-immunoprecipitation of Myc-Parkin with Ubc4 expressed in HEK293 cells. The experiment is classed as binding, human. The following applies: IP with antiMyc antibody. As for the experimental part:
as §1, §3, §4

Experiment [6] deals with UbcH5A-C. The experiment is described as follows: Co-immunoprecipitation of Myc-Parkin with UbcH5A-C expressed in HEK293 cells. Particulars: IP with antiMyc antibody. The experiment is classed as binding, human. As to the method:
as §1, §3, §4

Experiment [7] concerns the target T5, UbcH6 (Homo sapiens, UniProt P51965).
T5 construct: expressed in transfected cells; host or cells: HEK293
The experiment can be described thus: Co-immunoprecipitation of Myc-Parkin with UbcH6 expressed in HEK293 cells. The experiment is classed as binding. Particulars: IP with antiMyc antibody. As for the experimental part:
as §1, §3, §4

In experiment [8] the test system is human dopamigenergic neuroblastoma SH-SY5Y cells. The experiment is described as follows: Association of FLAG-ubiquitinated cell protein with Myc-Parkin in SH-SY5Y cells (antiMyc immunoprecipitation, antiFLAG immunoblotting). The experiment is classed as cell-based. As to the method:
as §1, §2
(§5) The transfection was carried out by using FuGENE6 transfection reagent according to the producer (Boehringer-Mannheim)'s manual. The cells were treated with MG132 (Cbz-Leu-Leu-Leu-aldehyde) (Peptide Institute, Inc., Osaka, Japan) having a final concentration of 50 μM.
(§6) The immunoprecipitation was conducted with rabbit polyclonal antiMyc antibodies (A-14) (Santa Cruz Biotechnology) as previously reported [Suzuki H. et al., Biochem. Biophys. Res. Commun. 256, 127-132 (1999)]. The immunoblotting was conducted with biotin linked mouse monoclonal antiFLAG(M2) antibody (SIGMA), mouse monoclonal antiMyc antibody (9E10) (Santa Cruz Biotechnology), mouse monoclonal antiHA antibody (HA.11) (Berkeley Antibody Company) or mouse monoclonal antiHis antibody (RGS.His) (QIAGEN). Streptoavidin/horseradish peroxidase complex (Amersham Pharmacia Biotech) was used for detecting biotin-linked antiFLAG(M2) antibody.
(§7) At first, 10 μg of pcDNA3.1(+)Myc-parkin and 10 μg of pcDNA3.1(+)FLAG-ubiquitin vector were simultaneously transfected into SH-SY5Y cells. […]
Background: A western blot detects proteins with antibodies after separation by electrophoresis.

In experiment [9] the test system is HEK293 fetal kidney cell. The experiment is described as follows: Association of FLAG-ubiquitinated cell protein with Myc-Parkin in HEK293 cells. The following applies: HEK293 fetal kidney cell extract, same analysis as in SH-SY5Y. The experiment is classed as cell-based, human. As to the method: as §2, §5, §6, §7
[10] abbreviates: SH-SY5Y cells treated with proteasome inhibitor MG132 (50 μM).

T1 sequence (P68036 whole entry): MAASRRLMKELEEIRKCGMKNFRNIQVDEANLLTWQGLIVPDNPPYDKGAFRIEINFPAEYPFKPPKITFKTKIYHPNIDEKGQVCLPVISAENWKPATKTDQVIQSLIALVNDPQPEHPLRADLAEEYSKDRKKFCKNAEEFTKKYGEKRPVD
T2 sequence (O14933 whole entry): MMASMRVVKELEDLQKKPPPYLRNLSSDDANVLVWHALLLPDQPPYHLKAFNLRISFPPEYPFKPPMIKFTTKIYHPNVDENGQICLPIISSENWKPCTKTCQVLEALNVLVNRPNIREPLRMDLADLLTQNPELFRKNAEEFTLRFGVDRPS
T5 sequence (P51965 whole entry): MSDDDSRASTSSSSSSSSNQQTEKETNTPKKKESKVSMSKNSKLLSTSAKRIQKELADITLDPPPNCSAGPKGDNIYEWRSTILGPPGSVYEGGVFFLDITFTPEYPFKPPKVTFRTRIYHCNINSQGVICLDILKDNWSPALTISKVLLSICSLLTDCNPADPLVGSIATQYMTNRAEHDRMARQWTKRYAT
T3 sequence (P63146 whole entry): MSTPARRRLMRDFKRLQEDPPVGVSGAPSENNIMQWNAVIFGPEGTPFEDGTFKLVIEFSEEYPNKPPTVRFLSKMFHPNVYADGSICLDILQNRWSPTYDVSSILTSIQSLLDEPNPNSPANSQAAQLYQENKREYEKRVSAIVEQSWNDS

B1: Parkin: Protein of 465 amino acids encoded by parkin, with N-terminal ubiquitin-like domain and C-terminal RING-box; used Myc-labeled (protein, UniProt O60260 1-465, looked up)
E3 ubiquitin-protein ligase …: MIVFVRFNSSHGFPVEVDSDTSIFQLKEVVAKRQGVPADQLRVIFAGKELRNDWTVQNCDLDQQSIVHIVQRPWRKGQEMNATGGDDPRNAAGGCEREPQSLTRVDLSSSVLPGDSVGLAVILHTDSRKDSPPAGSPAGRSIYNSFYVYCKGPCQRVQPGKLRVQCSTCRQATLTLTQGPSCWDDVLIPNRMSGECQSPHCPGTSAEFFFKCGAHPTSDKETSVALHLIATNSRNITCITCTDVRSPVLVFQCNSRHVICLDCFHLYCVTRLNDRQFVHDPQLGYSLPCVAGCPNSLIKELHHFRILGEEQYNRYQQYGAEECVLQMGGVLCPRPGCGAGLLPEPDQRKVTCEGGNGLGCGFAFCRECKEAYHEGECSAVFEASGTTTQAYRVDERAAEQARWEAASKETIKKTTKPCPRCHVPVEKNGGCMHMKCPQPQCRLEWCWNCGCEWNRVCMGDHWFDV
modifications: Myc tag
notes: Protein of 465 amino acids encoded by parkin, with N-terminal ubiquitin-like domain and C-terminal RING-box; used Myc-labeled
B1: the “association (co-immunoprecipitation) with UbcH7” value (“association … with UbcH7” for short) in experiment [1] is reported as “immunoprecipitated together with Parkin”. For the same molecule, the “association (co-immunoprecipitation) with UbcH8” value in experiment [2] was “not detected under ordinary conditions; also recorded: UbcH8 immunoprecipitation was weak”. In addition, the “association (co-immunoprecipitation) with Ubc2” value in [3] was “no detectable linkage”. Moreover, in experiment [4], the “association (co-immunoprecipitation) with Ubc3” value is listed as “no detectable linkage”. The “association (co-immunoprecipitation) with Ubc4” value in [5] is given as “no detectable linkage”. In addition, the “association (co-immunoprecipitation) with UbcH5A-C” value in experiment [6] is recorded as “no detectable linkage”. Besides, in experiment [7], the “association (co-immunoprecipitation) with UbcH6” value is given as “no detectable linkage”. In addition, the “ubiquitinated protein bands associated with Parkin” value in experiment [8] (setting [10]) is given as “ubiquitinated bands including high-molecular ubiquitinated proteins, were detected”; in [8] (SH-SY5Y cells, no treatment with inhibitor), “no ubiquitinated band was found”; in [9] it was “no ubiquitinated band linked with Parkin was observed”.

B2: Parkin^R42P: Missense Parkin variant from AR-JP patient, No. 42 arginine replaced with proline (ubiquitin-like domain variant) (protein, UniProt O60260 1-465, looked up, variant R42P)
E3 ubiquitin-protein ligase …: MIVFVRFNSSHGFPVEVDSDTSIFQLKEVVAKRQGVPADQLPVIFAGKELRNDWTVQNCDLDQQSIVHIVQRPWRKGQEMNATGGDDPRNAAGGCEREPQSLTRVDLSSSVLPGDSVGLAVILHTDSRKDSPPAGSPAGRSIYNSFYVYCKGPCQRVQPGKLRVQCSTCRQATLTLTQGPSCWDDVLIPNRMSGECQSPHCPGTSAEFFFKCGAHPTSDKETSVALHLIATNSRNITCITCTDVRSPVLVFQCNSRHVICLDCFHLYCVTRLNDRQFVHDPQLGYSLPCVAGCPNSLIKELHHFRILGEEQYNRYQQYGAEECVLQMGGVLCPRPGCGAGLLPEPDQRKVTCEGGNGLGCGFAFCRECKEAYHEGECSAVFEASGTTTQAYRVDERAAEQARWEAASKETIKKTTKPCPRCHVPVEKNGGCMHMKCPQPQCRLEWCWNCGCEWNRVCMGDHWFDV
Take B2: the “association … with UbcH7” value in experiment [1] was “could be linked with UbcH7”. Moreover, the “ubiquitinated protein bands associated with Parkin” value in experiment [8] (setting [10]) was “substantially completely lost the association with the ubiquitinated protein”.

B3: Parkin^T240R: Missense Parkin variant from AR-JP patient, No. 240 threonine replaced with arginine (RING1 domain) (protein, UniProt O60260 1-465, looked up, variant T240R)
E3 ubiquitin-protein ligase …: MIVFVRFNSSHGFPVEVDSDTSIFQLKEVVAKRQGVPADQLRVIFAGKELRNDWTVQNCDLDQQSIVHIVQRPWRKGQEMNATGGDDPRNAAGGCEREPQSLTRVDLSSSVLPGDSVGLAVILHTDSRKDSPPAGSPAGRSIYNSFYVYCKGPCQRVQPGKLRVQCSTCRQATLTLTQGPSCWDDVLIPNRMSGECQSPHCPGTSAEFFFKCGAHPTSDKETSVALHLIATNSRNITCIRCTDVRSPVLVFQCNSRHVICLDCFHLYCVTRLNDRQFVHDPQLGYSLPCVAGCPNSLIKELHHFRILGEEQYNRYQQYGAEECVLQMGGVLCPRPGCGAGLLPEPDQRKVTCEGGNGLGCGFAFCRECKEAYHEGECSAVFEASGTTTQAYRVDERAAEQARWEAASKETIKKTTKPCPRCHVPVEKNGGCMHMKCPQPQCRLEWCWNCGCEWNRVCMGDHWFDV
As for B3, the “association … with UbcH7” value in experiment [1] was “did not interact with UbcH7”.
